Reference: patent US20230080534A1, “SEMG2 ANTIBODY AND USE THEREOF” (SHANGHAI BIOTROY BIOTECHNIQUE CO., LTD., priority 2020, published 2023)

Key:
[1] = molecular target: T1, binding between SEMG2 and CD27 (Homo sapiens, UniProt Q02383); test: Antibody blocking ELISA of SEMG2 binding to CD27-Fc; settings: antibody 10 μg/mL
T1 sequence (Q02383 24-582): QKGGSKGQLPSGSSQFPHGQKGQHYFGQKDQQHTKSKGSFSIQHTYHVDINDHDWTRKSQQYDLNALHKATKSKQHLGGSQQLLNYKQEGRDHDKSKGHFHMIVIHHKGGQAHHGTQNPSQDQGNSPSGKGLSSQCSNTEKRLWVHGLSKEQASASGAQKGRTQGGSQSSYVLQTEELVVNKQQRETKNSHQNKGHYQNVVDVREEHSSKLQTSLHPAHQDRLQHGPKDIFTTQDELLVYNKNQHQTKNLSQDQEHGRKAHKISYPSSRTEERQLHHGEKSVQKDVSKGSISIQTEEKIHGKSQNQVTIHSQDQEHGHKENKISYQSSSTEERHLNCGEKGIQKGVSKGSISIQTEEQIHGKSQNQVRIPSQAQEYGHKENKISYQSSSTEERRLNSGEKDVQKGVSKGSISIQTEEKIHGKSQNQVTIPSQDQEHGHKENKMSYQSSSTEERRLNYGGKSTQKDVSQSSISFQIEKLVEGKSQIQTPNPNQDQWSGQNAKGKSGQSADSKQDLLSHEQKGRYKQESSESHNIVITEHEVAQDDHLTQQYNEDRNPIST
Source text: Because SEMG2 (497-509) sequence fragment is the key epitope of SEMG2 binding to CD27, and has a relatively short sequence, so SEMG2 (497-509) was used as an immunogen to prepare antibodies, which is theoretically easier to obtain functional antibody molecules with the function of blocking the binding between SEMG2 and CD27 than using full-length SEMG2 to prepare antibodies. For direct comparison, the differences in effective concentration of producing antibody by the two methods were verified using ELISA in the examples. Antibodies produced with SEMG2 (497-509) as immunogen and antibodies produced with full-length SEMG2 were added into the enzyme-linked immunosorbent assay (ELISA) reaction system at different concentrations (10^-2, 10^-1, 10^0, 10^1, 10^2, 10^3, 10^4 μg/mL), and the ELISA binding values were measured. The specific steps of enzyme-linked immunosorbent assay are as follows: (1) Dissolve SEMG2 protein antigen with 50 mM carbonate coating buffer (pH 9.6) to make the antigen concentration 10 μg/mL, and add into 96-well ELISA plate (purchased from Corning) at 100 μL/well, place at 4° C. overnight. (2) After discarding the coating solution on the next day, wash with PBST for three times, add 150 μL of 1% BSA to each well, and block for 2 hours at 37° C. […] (4) After washing for 5 times with PBST, add 100 of diluted HRP-labeled anti-human Fe secondary antibody, and incubate at 37° C. for 1 hour. (5) After washing with PBST for 5 times, 20 min after developing with chromogenic agent, the A450 absorption value was read using the microplate reader.
The SEMG2 (497-509) sequence was used to synthesize a polypeptide and coupled to a VLP carrier for immunization; HEK293 cells were used to express the full-length SEMG2 protein, and the purity was tested to reach 92%, and the binding activity of SEMG2 protein to CD27 was verified by ELISA. The protein and polypeptide antigens were used to immunize 10 mice respectively, and multiple immunizations were performed to enhance the effect: (1) The first immunization, 50 μg/mice of antigen, multiple subcutaneous injections together with Freund's complete adjuvant, with an interval of 3 weeks; (2) the second immunization; the same dosage and route as above, with incomplete Freund's adjuvant, and with an interval of 3 weeks; (3) the third immunization, the same dosage as above, without adjuvant, intraperitoneal injection with an interval of 3 weeks; (4) the booster immunization, the dose is 50 μg, intraperitoneal injection. 3 days after the last injection, blood was collected to measure its titer and the immune effect, and mice with higher titers were selected for hybridoma fusion screening. After subcloning, the binding of the monoclonal antibodies to the target antigens was detected by ELISA, and the function of different monoclonal antibodies in blocking the binding between SEMG2 and CD27 was measured by ELISA.
First, SEMG2(497-509) epitope-specific antibodies (for example, MM02, MM05) were compared with other epitope-specific antibodies (for example, HPA042767) for their function in blocking binding between SEMG2 and CD27 at different concentration ranges. […] The blocking function of different antibodies (irrelative mouse IgG, MM02, MM05, HPA042767) on binding between SEMG2 and CD27 was analyzed by the ELISA experiment as described in Example 11.
Further, the effects of different antibodies on the binding between SEMG2 and CD27 were compared under the condition of the same antibody concentration. In the ELISA, the same concentration (10 μg/mL) of antibody was used, and the strength of the binding between SEMG2 and CD27 was measured. […]

[2] = molecular target: T2, SEMG2(497-509) fragment (Homo sapiens, UniProt Q02383); test: ELISA binding of antibodies to SEMG2(497-509) epitope
T2 construct: SEMG2(497-509) fragment and SEMG2(563-574) fragment were immobilized on the ELISA plate; made in house; host or cells: chemical synthesis
Description: Specifically, SEMG2 full-length protein (1-582), SEMG2(354-403) fragment, SEMG2(442-453) fragment, SEMG2(497-509) fragment and SEMG2(563-574) fragment were immobilized on the ELISA plate, and the same concentration of antibodies (MM02, MM05, MM07, MM08, MM13, MM14, HPA042767 and HPA042835) were added. Anti-mouse or anti-rabbit secondary antibodies were then used to detect the corresponding bound antibodies. MM02, MM05, MM07, MM08, MM13, and MM14 all bound to SEMG2(497509) epitope, HPA042767 bound to SEMG2 (354-403) epitope, and HPA042835 bound to […], while none of the antibodies bound to SEMG2 (442-453) control fragment.
Specifically, the preparation of polypeptide antigens and the screening of human natural antibody library were firstly performed. The SEMG2(497-509) polypeptide was synthesized and coupled to BSA and KLH, respectively, and screened in a fully human phage display antibody library. ELISA was used to select clones that bind to antigenic epitopes for preliminary screening. Different unique sequences were obtained after sequencing single colonies, sorted according to affinity sorting, and full-length antibodies were constructed from antigen-binding fragments (Fab) with relatively high affinity. The binding ability and blocking function tests were performed after purification, that is, the effect of the antibody on binding between SEMG2 and CD27 was determined by the ELISA experiment.

[3] = test system: A375 human melanoma cells; test: Tumor cell killing by activated PBMC, caspase-3/7 apoptosis; type: cell-based; settings: A375, SEMG2-positive, co-culture with activated PBMC 10:1
Description: (§1) To test the above hypothesis, the effects of different epitope-specific antibodies on tumor cell killing by activated PBMC were compared. Specifically, A375 human melanoma and LOVO human colorectal cancer cells highly expressing SEMG2 were seeded in 96-well plate. Human peripheral blood mononuclear cells (PBMC; #70025, Stem Cell) were activated with 100 ng/mL of CD3 antibody, 100 ng/mL, of CD28 antibody, and 1.0 ng/mL of IL2 (#317303; #302913; #589102, BioLegend), respectively, and co-cultured with the above tumor cells at a ratio of 10:1 in presence of fluorescent caspase-3/7 substrate (#4440, Essen Bioscience). After 1.0 hours, cells were observed under fluorescence microscope.
(§2) To verify the above hypothesis, tumor cells with high SEMG2 expression (A375, LOVO) and SEMG2-negative tumor cells (DLD1, NCM460 and NCI-H1975) were selected. Different antibodies (irrelevant mouse IgG antibodies, MM02 or MM05 antibodies) were added during the PBMC killing experiments for the tumor cells.
(§3) To verify the effect of the human antibodies on the function of activated PBMC on tumor cell killing, A375 and LOVO cells were co-cultured with activated PBMC, and H88-93, H88-96, or H88-67 antibody was added at the same time, and the apoptosis ratio of tumor cells were detected.

[4] = test system: LOVO human colorectal cancer cells; test: as above; type: cell-based; settings: SEMG2-positive, co-culture with activated PBMC 10:1
Description: as §1, §2, §3

[5] = molecular target: T3, SEMG2 (Homo sapiens, UniProt Q02383); test: Competition ELISA of fully human antibody with murine antibodies for SEMG2; type: binding; settings: concentration gradient of fully human antibody mixed with murine antibody
T3 sequence (Q02383 24-582): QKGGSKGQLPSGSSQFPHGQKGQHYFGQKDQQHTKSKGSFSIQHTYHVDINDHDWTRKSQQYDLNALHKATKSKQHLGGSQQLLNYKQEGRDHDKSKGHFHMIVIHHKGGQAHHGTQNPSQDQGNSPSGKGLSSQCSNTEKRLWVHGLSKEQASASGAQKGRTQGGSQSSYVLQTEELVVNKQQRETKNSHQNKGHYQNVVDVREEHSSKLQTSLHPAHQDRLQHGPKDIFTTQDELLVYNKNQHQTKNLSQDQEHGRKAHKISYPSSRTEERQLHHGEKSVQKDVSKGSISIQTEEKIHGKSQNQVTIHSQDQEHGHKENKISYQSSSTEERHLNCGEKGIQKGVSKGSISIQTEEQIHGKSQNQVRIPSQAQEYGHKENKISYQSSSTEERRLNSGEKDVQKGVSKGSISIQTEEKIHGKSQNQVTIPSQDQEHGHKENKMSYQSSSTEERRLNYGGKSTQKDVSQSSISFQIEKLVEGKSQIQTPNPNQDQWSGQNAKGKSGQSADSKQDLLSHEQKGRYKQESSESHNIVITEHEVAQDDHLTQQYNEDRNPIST
Description: The binding abilities of fully human antibodies and murine antibodies to SEMG2 were tested, that is, murine antibodies MM02 and MM05 and concentration gradient diluted filly human antibodies H88-93 were mixed and added as primary antibodies in a 96-well microplate coated with SEMG2. Murine monoclonal antibody bound to SEMG2 was measured using anti-mouse HRP secondary antibody. The blocking percentage is calculated according to the following formula:
Blocking percentage=[1−(A450 of experimental antibody group-Blank control)/(A450 of positive control antibody−A450 of empty control)]×100%

B1: H88-93: fully human antibody from phage library against SEMG2(497-509), VH SEQ ID NO:55, VL SEQ ID NO:58 (antibody, V domains shown)
VH: QITLKESGPTLVKPTQTLTLTCNFSGFSLTTSGVGVAWIRQPPGKALEWLALIYWDDDQRYSPSLKSRLSVTKHTSKDQVVLTMTNVGPVDTATYYCAHLSYGPGWGYYMDVWGNGTMVTVSS
VL: EIVLTQSPGTLSLSPGERASLSCRASQSVRNNYLAWYQQKPGQAPRLLIFGASNRATGIPDTFSGSGSGTDFTLTISRLEPEDFAVYYCQQYGHSPITFGQGTRLEIK
modifications: UNSURE (1)..(123) VH; UNSURE (1)..(108) VL
effect on the binding between SEMG2 and CD27 [1]: inhibited the binding | binding to SEMG2(497-509) epitope [2]: bind | apoptosis tumor cell ratio / killing by activated PBMC [3]: significantly promote the killing | apoptosis tumor cell ratio / killing by activated PBMC [4]: significantly promote the killing | competition with MM02 and MM05 for binding to SEMG2 [5]: competes
